Legend:
[1] = tested on: O=C(COP(=O)(O)O)[C@@H](O)[C@H](O)[C@H](O)COP(=O)(O)O; test: purified protein, by the assay type; details: other: cleavage of F-1,6-BP to DHAP and glyceraldehyde 3-phosphate, 37° C., pH 7.5
[2] = target: fructose-1,6-bisphosphate aldolase (F-1,6-BP aldolase) from Staphylococcus carnosus, class I, purified (Staphylococcus carnosus, UniProt Q07159); details: read-out: Km for F-1-P; cleavage of F-1-P to DHAP and glyceraldehyde; 37° C., pH 7.5
Procedure: Purified aldolase (40 μg/ml) was used for characterizing the enzyme, and 120 μg/ml were used for molecular weight determination.

Chain of fructose-1,6-bisphosphate aldolase (F-1,6-BP aldolase) from Staphylococcus carnosus, class I, purified (Q07159 whole entry): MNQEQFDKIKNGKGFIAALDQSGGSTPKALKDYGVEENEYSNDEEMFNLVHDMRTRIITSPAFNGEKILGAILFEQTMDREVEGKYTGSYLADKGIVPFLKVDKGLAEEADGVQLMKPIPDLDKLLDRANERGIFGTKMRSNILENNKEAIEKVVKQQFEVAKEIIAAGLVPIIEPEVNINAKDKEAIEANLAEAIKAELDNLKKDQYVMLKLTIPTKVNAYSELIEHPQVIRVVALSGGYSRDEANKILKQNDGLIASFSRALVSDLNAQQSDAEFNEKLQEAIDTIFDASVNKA

Molecule | Km [1] [mM] | Km [2] [mM]
fructose-1,6-bisphosphate aldolase (F-1,6-BP aldolase) from Staphylococcus carnosus, class I, purified (Staphylococcus carnosus subsp. carnosus TM300) | 0.022 | –
O=C(COP(=O)(O)O)[C@@H](O)[C@H](O)[C@H](O)CO [F-1-P] | – | 18.8
